Measured values published in patent CN116854812A.

Tests used:
[1] = molecular target: 沙眼衣原体培养物(购自菲鹏生物) (Chlamydia trachomatis); assay: indirect ELISA, plate coated with C. trachomatis culture diluted 100x; antibody at 10 ng/ml
[2] = molecular target: 沙眼衣原体培养物(购自菲鹏生物) (Chlamydia trachomatis); assay: indirect ELISA, plate coated with C. trachomatis culture diluted 100x; antibody at 20 ng/ml
[3] = molecular target: 沙眼衣原体培养物(购自菲鹏生物) (Chlamydia trachomatis); assay: indirect ELISA, plate coated with C. trachomatis culture diluted 100x; antibody at 0 ng/ml (blank)
[4] = molecular target: 沙眼衣原体培养物(购自菲鹏生物) (Chlamydia trachomatis); assay: indirect ELISA, plate coated with C. trachomatis culture diluted 100x; antibody at 2.5 ng/ml
[5] = molecular target: 沙眼衣原体培养物(购自菲鹏生物) (Chlamydia trachomatis); assay: indirect ELISA, plate coated with C. trachomatis culture diluted 100x; antibody at 5 ng/ml
[6] = molecular target: 沙眼衣原体培养物(购自菲鹏生物) (Chlamydia trachomatis); assay: indirect ELISA, plate coated with C. trachomatis culture diluted 100x; antibody at 40 ng/ml

Row | OD (450nm, 参考630nm) [1] | OD (450nm, 参考630nm) [2] | OD (450nm, 参考630nm) [3] | OD (450nm, 参考630nm) [4] | OD (450nm, 参考630nm) [5] | OD (450nm, 参考630nm) [6] | Molecule
1 | 0.825 OD | 1.2 OD | 0.025 OD | 0.291 OD | 0.503 OD | 1.79 OD | 对照 (antibody)
2 | 1.14 OD | 1.65 OD | 0.043 OD | 0.462 OD | 0.811 OD | 1.9 OD | Anti-CT-4B11mut1单克隆抗体 (antibody, mouse IgG2a, kappa, V domains shown) VH: QVQVRQSGPGLVQPSQSLSITCTVSGFSLRSHGVNWVRQSPRKGLEWLGVIWKGGSTEYSAAFMSRLSISKDNSKNQIFFKMNSLQADDTAIYYCAKNNDYGRFDYWGQGTLVTVSA VL: EVVLTQSPTTLAASPGETITITCRVSSSISSSYLHWYQQKPGFSPKLLIYRTSNLASGVPARFSGSGSGTSYSLTIGTMEADDVATYYCQQGSSLPRTFGGGTTLEIKR
3 | 1.33 OD | 1.71 OD | 0.026 OD | 0.507 OD | 0.959 OD | 1.92 OD | Anti-CT-4B11mut2单克隆抗体 (antibody, part only; not given: light chain, part only) heavy: QVQVRQSGPGLVQPSQSLSITCTVSGFSLRSHGVNWVRQSPRKGLEWLGVIWKGGSTEYSAAFMSRLSISKDNSKNQIFFKMNSLQADDTAIYYCAKNNDYGRFDYWGQGTLVTVSAAKTTAPSVYPLAPVCGDTTGSSVTLGCLVKGYFPEPVTLTWNSGSLSSGVHTFPAVLQSDLYTLSSSVTVTSSTWPSQSITCNVAHPASSTKVDKKIEPRGPTIKPCPPCKCPAPNLLGGPSVFIFPPKIKDVLMISLSPIVTCVVVDVSEDDPDVQISWFVNNVEVHTAQTQTHREDYNSTLRVVSALPIQHQDWMSGKEFKCKVNNKDLPAPIERTISKPKGSVRAPQVYVLPPPEEEMTKKQVTLTCMVTDFMPEDIYVEWTNNGKTELNYKNTEPVLDSDGSYFMYSKLRVEKKNWVERNSYSCSVVHEGLHNHHTTKSFSRTPGK
